T1: ETS1 x2 (Homo sapiens, UniProt P14921)
T1 sequence: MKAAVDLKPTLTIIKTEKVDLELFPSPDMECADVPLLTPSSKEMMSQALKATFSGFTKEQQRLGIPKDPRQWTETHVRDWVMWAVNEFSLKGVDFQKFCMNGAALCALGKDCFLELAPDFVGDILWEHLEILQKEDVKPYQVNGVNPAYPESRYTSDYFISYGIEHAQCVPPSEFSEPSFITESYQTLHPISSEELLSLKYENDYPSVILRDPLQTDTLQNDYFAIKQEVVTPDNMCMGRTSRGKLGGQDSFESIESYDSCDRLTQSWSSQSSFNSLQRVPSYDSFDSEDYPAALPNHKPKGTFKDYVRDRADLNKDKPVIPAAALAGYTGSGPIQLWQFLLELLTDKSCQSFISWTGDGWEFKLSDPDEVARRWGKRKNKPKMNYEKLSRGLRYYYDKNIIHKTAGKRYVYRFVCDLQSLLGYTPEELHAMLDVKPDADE


target: T1, ETS1 x2; experiment: gcPBM; 10 nM ETS1; details: tags: N-terminal GST (pDEST15), kept (PMC6008103); chain copies: 2; label: surface-attached array probe

Row | Binder | binding signal
1 | Table S4 A row 2434 (dsDNA) DNA 1: AGCAACAACGTCACTTCCCTTCCGGACCACAAGGGG DNA 2: CCCCTTGTGGTCCGGAAGGGAAGTGACGTTGTTGCT | 3480 PBM fluorescence, median of replicate spots
2 | Table S4 A row 1324 (dsDNA) DNA 1: TTGAATGGACCTCATCCTGCTTCCTGCTCTTTGCAG DNA 2: CTGCAAAGAGCAGGAAGCAGGATGAGGTCCATTCAA | 3130 PBM fluorescence, median of replicate spots
3 | Table S4 A row 2542 (dsDNA) DNA 1: GGGAAACTCCACAGGAAACGGAAATGGTCTCTCCCA DNA 2: TGGGAGAGACCATTTCCGTTTCCTGTGGAGTTTCCC | 4020 PBM fluorescence, median of replicate spots
4 | Table S4 A row 2446 (dsDNA) DNA 1: TCCCACCGTCCCATCCGCTACTTCCCGAAAACTCAA DNA 2: TTGAGTTTTCGGGAAGTAGCGGATGGGACGGTGGGA | 1300 PBM fluorescence, median of replicate spots
5 | Table S4 A row 1239 (dsDNA) DNA 1: GGGAGGCCCTGCAGGAAGCAGGATGTTGACCCGGAG DNA 2: CTCCGGGTCAACATCCTGCTTCCTGCAGGGCCTCCC | 2610 PBM fluorescence, median of replicate spots
6 | Table S4 A row 1258 (dsDNA) DNA 1: CCATCAGCAAACATCCCACCGGATGTTTTCTTAAGC DNA 2: GCTTAAGAAAACATCCGGTGGGATGTTTGCTGATGG | 5080 PBM fluorescence, median of replicate spots
7 | Table S4 A row 180 (dsDNA) DNA 1: AGCAATACCAGGAAATGTGTTGCTTCCTAAAGTGAT DNA 2: ATCACTTTAGGAAGCAACACATTTCCTGGTATTGCT | 1370 PBM fluorescence, median of replicate spots
8 | Table S4 A row 2690 (dsDNA) DNA 1: CGGGCCTCCGCCTTCCGCCCGGAACCCACCCCCGGG DNA 2: CCCGGGGGTGGGTTCCGGGCGGAAGGCGGAGGCCCG | 1830 PBM fluorescence, median of replicate spots
9 | Table S4 A row 2604 (dsDNA) DNA 1: AGGGGGCGGCGGCGGATGCCGGAAGAGTGCCCGCCC DNA 2: GGGCGGGCACTCTTCCGGCATCCGCCGCCGCCCCCT | 1530 PBM fluorescence, median of replicate spots
10 | Table S4 A row 834 (dsDNA) DNA 1: AAGGCAGGAGGATGTGCTCGCGGTTTCCTGTGATGT DNA 2: ACATCACAGGAAACCGCGAGCACATCCTCCTGCCTT | 1650 PBM fluorescence, median of replicate spots
11 | Table S4 A row 2304 (dsDNA) DNA 1: GCGGCCTGACGGGAAACGTAGTTTCCGGGGCCAAGA DNA 2: TCTTGGCCCCGGAAACTACGTTTCCCGTCAGGCCGC | 4630 PBM fluorescence, median of replicate spots
12 | Table S4 A row 2126 (dsDNA) DNA 1: ACGCGAAAGCCCGGATAGACTTCCGCGCAGGGGCGG DNA 2: CCGCCCCTGCGCGGAAGTCTATCCGGGCTTTCGCGT | 2080 PBM fluorescence, median of replicate spots
13 | Table S4 A row 382 (dsDNA) DNA 1: AGGAGGGAGGGAGCTTCCTTCCTGTTCTCTGAAGGC DNA 2: GCCTTCAGAGAACAGGAAGGAAGCTCCCTCCCTCCT | 3590 PBM fluorescence, median of replicate spots
14 | Table S4 A row 1195 (dsDNA) DNA 1: GGCGTCGCCGCCGGATTCGACTTCCTGACGTCAGGC DNA 2: GCCTGACGTCAGGAAGTCGAATCCGGCGGCGACGCC | 1940 PBM fluorescence, median of replicate spots
15 | Table S4 A row 548 (dsDNA) DNA 1: GCGCACCGAAACGGAAGAACTTCCTTGATTAGCATA DNA 2: TATGCTAATCAAGGAAGTTCTTCCGTTTCGGTGCGC | 2740 PBM fluorescence, median of replicate spots
16 | Table S4 A row 1614 (dsDNA) DNA 1: GTTCTTCGACCCGGATGCGCTTCCTAATAAAACGGC DNA 2: GCCGTTTTATTAGGAAGCGCATCCGGGTCGAAGAAC | 5240 PBM fluorescence, median of replicate spots
17 | Table S4 A row 1545 (dsDNA) DNA 1: CTTCGAAGAGATTTCCTCCCGGAAAGGCCGAGCATT DNA 2: AATGCTCGGCCTTTCCGGGAGGAAATCTCTTCGAAG | 1350 PBM fluorescence, median of replicate spots
18 | Table S4 A row 126 (dsDNA) DNA 1: CACTGCACACTTCCTAGCAGGCTTCCTGTGTAGCTG DNA 2: CAGCTACACAGGAAGCCTGCTAGGAAGTGTGCAGTG | 4970 PBM fluorescence, median of replicate spots
19 | Table S4 A row 1205 (dsDNA) DNA 1: CTTAAACTGGAGGAAGTAAGTTTCCGTTAAAATGTG DNA 2: CACATTTTAACGGAAACTTACTTCCTCCAGTTTAAG | 1760 PBM fluorescence, median of replicate spots
20 | Table S4 A row 1821 (dsDNA) DNA 1: TAATCTGCAACTTCCCTGTTCTTCCTGTTAGATGTG DNA 2: CACATCTAACAGGAAGAACAGGGAAGTTGCAGATTA | 2270 PBM fluorescence, median of replicate spots
21 | Table S4 A row 1500 (dsDNA) DNA 1: CTCGTCGCCAGGGGAAGTGCTTCCTGCTGACAGGTC DNA 2: GACCTGTCAGCAGGAAGCACTTCCCCTGGCGACGAG | 4140 PBM fluorescence, median of replicate spots

Row | Binder | binding signal
22 | Table S4 A row 2151 (dsDNA) DNA 1: AGGGCTCAGAGGCGGAAGCGGAAGCACATTCTGTCA DNA 2: TGACAGAATGTGCTTCCGCTTCCGCCTCTGAGCCCT | 3300 PBM fluorescence, median of replicate spots
23 | Table S4 A row 1712 (dsDNA) DNA 1: CACGAGTCCAGGAAACAAGTGCTTCCTGCCTATGGG DNA 2: CCCATAGGCAGGAAGCACTTGTTTCCTGGACTCGTG | 3840 PBM fluorescence, median of replicate spots
24 | Table S4 A row 136 (dsDNA) DNA 1: TCTTTTGATTGGGCTTCCTTCCTGTGTTTTCTCAGA DNA 2: TCTGAGAAAACACAGGAAGGAAGCCCAATCAAAAGA | 2710 PBM fluorescence, median of replicate spots
25 | Table S4 A row 1655 (dsDNA) DNA 1: CCGCGGGGTCCGGAACTGCTTGTTCCGGCAGTGGAA DNA 2: TTCCACTGCCGGAACAAGCAGTTCCGGACCCCGCGG | 1230 PBM fluorescence, median of replicate spots
26 | Table S4 A row 2116 (dsDNA) DNA 1: CCCAGCGGGCGAACTTCCTTTCCGCGCAACTCGCCC DNA 2: GGGCGAGTTGCGCGGAAAGGAAGTTCGCCCGCTGGG | 2660 PBM fluorescence, median of replicate spots
27 | Table S4 A row 2212 (dsDNA) DNA 1: CTGGGCCAGGCGGAAGCTCTGCTTCCGCATGCTGGG DNA 2: CCCAGCATGCGGAAGCAGAGCTTCCGCCTGGCCCAG | 4240 PBM fluorescence, median of replicate spots
28 | Table S4 A row 2556 (dsDNA) DNA 1: CGCGCCGGACCGGAAAGCCGGGGAAGTGGCCGAGGA DNA 2: TCCTCGGCCACTTCCCCGGCTTTCCGGTCCGGCGCG | 3050 PBM fluorescence, median of replicate spots
29 | Table S4 A row 2174 (dsDNA) DNA 1: CAGCACGGGCCGCTTCCTTATCCGGTAAAGTGCGGG DNA 2: CCCGCACTTTACCGGATAAGGAAGCGGCCCGTGCTG | 2460 PBM fluorescence, median of replicate spots
30 | Table S4 A row 1809 (dsDNA) DNA 1: AGGGCAGGATGCCAAGATGAACTACATTTCCTGGCA DNA 2: TGCCAGGAAATGTAGTTCATCTTGGCATCCTGCCCT | 1160 PBM fluorescence, median of replicate spots
31 | Table S4 A row 2527 (dsDNA) DNA 1: GCCTGAAGCCGGAAGACTATAGCTTCCCGGCATGCA DNA 2: TGCATGCCGGGAAGCTATAGTCTTCCGGCTTCAGGC | 3700 PBM fluorescence, median of replicate spots
32 | Table S4 A row 356 (dsDNA) DNA 1: TTGGGCCATTGTTTTCCTGCTTCCTCCCTTCAAGCC DNA 2: GGCTTGAAGGGAGGAAGCAGGAAAACAATGGCCCAA | 1590 PBM fluorescence, median of replicate spots
33 | Table S4 A row 110 (dsDNA) DNA 1: TTGAGGGCTGGGCGGAAACGGAAAAGGCTAAGGGCC DNA 2: GGCCCTTAGCCTTTTCCGTTTCCGCCCAGCCCTCAA | 2150 PBM fluorescence, median of replicate spots
34 | Table S4 A row 2241 (dsDNA) DNA 1: GCGGCCTCCAAACATCCTCCGGAAGCTGCCACCTAC DNA 2: GTAGGTGGCAGCTTCCGGAGGATGTTTGGAGGCCGC | 2030 PBM fluorescence, median of replicate spots
35 | Table S4 A row 1550 (dsDNA) DNA 1: AAGTTGGGCCTGACTTCCTTCCTGTGGGGTTGCAGC DNA 2: GCTGCAACCCCACAGGAAGGAAGTCAGGCCCAACTT | 5110 PBM fluorescence, median of replicate spots
36 | Table S4 A row 700 (dsDNA) DNA 1: TGGGTGACACTCCTTCCGCCTTCCGTGACCCCCATC DNA 2: GATGGGGGTCACGGAAGGCGGAAGGAGTGTCACCCA | 2820 PBM fluorescence, median of replicate spots
37 | Table S4 A row 502 (dsDNA) DNA 1: CAGAGCAGCAGGAAACCATTATTTCCTCCTAGGTCT DNA 2: AGACCTAGGAGGAAATAATGGTTTCCTGCTGCTCTG | 2360 PBM fluorescence, median of replicate spots
38 | Table S4 A row 1213 (dsDNA) DNA 1: ACAATATCCCAGGAAACAGACATCCGCGTGCTCGCG DNA 2: CGCGAGCACGCGGATGTCTGTTTCCTGGGATATTGT | 1480 PBM fluorescence, median of replicate spots
39 | Table S4 A row 376 (dsDNA) DNA 1: CGTGACACTTCTTTTCCTGTTTCCTGGGTCTCACCA DNA 2: TGGTGAGACCCAGGAAACAGGAAAAGAAGTGTCACG | 4760 PBM fluorescence, median of replicate spots
40 | Table S4 A row 677 (dsDNA) DNA 1: ACAGCCCCGCCCGCTTCCTTCCTGCCTTCTCCACGT DNA 2: ACGTGGAGAAGGCAGGAAGGAAGCGGGCGGGGCTGT | 3660 PBM fluorescence, median of replicate spots
41 | Table S4 A row 1015 (dsDNA) DNA 1: AGAAGCCACCACAGGAAACGGAAGAAGCCACCTCTG DNA 2: CAGAGGTGGCTTCTTCCGTTTCCTGTGGTGGCTTCT | 3380 PBM fluorescence, median of replicate spots
42 | Table S4 A row 2210 (dsDNA) DNA 1: AAAACACCCGGATGGAGTCGCACTTCCCGAGTCTCG DNA 2: CGAGACTCGGGAAGTGCGACTCCATCCGGGTGTTTT | 1250 PBM fluorescence, median of replicate spots

Reference: article PMC10681739, “High-throughput data and modeling reveal insights into the mechanisms of cooperative DNA-binding by transcription factor proteins”
